Assay results from patent US20260152555A1 (HUAHUI HEALTH, published 2026).
Residue numbers refer to the chain shown, from its start. Names may count otherwise.

Tests used:
Test in all cases: SPR (Biacore T200), multi-cycle; H733-hIgG4 captured on anti-hFc Ab, hCD112R-ECD-mFc variant injected (3.125-100 nM); 1:1 Langmuir [Cont') B]
K135A = molecular target: T1, K135A (human, UniProt Q6DKI7)
T1 construct: extracellular domain, amino acids 42-172; alanine-scanning variant; also called hCD112R-ECD-mFc K135A variant
T1 sequence (Fc fusion chain, looked up): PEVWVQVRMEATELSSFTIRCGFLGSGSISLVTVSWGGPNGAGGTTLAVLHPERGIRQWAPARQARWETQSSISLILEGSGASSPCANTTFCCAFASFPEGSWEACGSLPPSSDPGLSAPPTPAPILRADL
Protocol: (§1) Kinetic analyses of the bindings of WT or mutated hCD112R-ECD-mFc proteins to H733 and hCD112-ECD were performed on a Biacore T200 instrument (Biacore, GE Healthcare). For the single-cycle SPR analysis, anti-mFc Ab (Thermo Fisher) was covalently attached to surfaces of a CM5 sensor chip using an amine coupling kit (GE Healthcare). WT or mutated hCD112R-ECD mFc fusion proteins were captured on the chip and H733-hIgG4 or hCD112-ECD-hFc were then injected. For the multi-cycle SPR analysis, anti-hFc Ab (Thermo Fisher) was covalently attached to surfaces of a CM5 sensor chip using an amine coupling kit (GE Healthcare). H733-hIgG4 or hCD112-ECD-hFc protein was captured on the chip and 2-fold serially diluted WT or mutated hCD112R-ECD-mFc proteins (3.125-100 nM) were then injected. Binding kinetics were evaluated using a 1:1 Langmuir binding model. The association rates (ka), dissociation rates (kd), and affinity constants (KD) were calculated using Biacore T200 evaluation software.

[1] = molecular target: T2, hCD112R-ECD-mFc E145A variant (human; mouse, UniProt Q6DKI7 42-172)
T2 construct: range 42-172; also called E145A mutation of hCD112R; not shown: Fc domain of mouse IgG2a
T2 sequence (looked up): T1 sequence (Fc fusion chain, looked up) with A94K, E104A
Protocol: as §1

F139A = molecular target: T3, F139A (human, UniProt Q6DKI7)
T3 construct: extracellular domain, amino acids 42-172; alanine-scanning variant; also called hCD112R-ECD-mFc F139A variant
T3 sequence (Fc fusion chain, looked up): T1 sequence (Fc fusion chain, looked up) with A94K, F98A
Protocol: as §1

E94A = molecular target: T4, E94A (human, UniProt Q6DKI7)
T4 construct: extracellular domain, amino acids 42-172; alanine-scanning variant; also called hCD112R-ECD-mFc E94A variant
T4 sequence (Fc fusion chain, looked up): T1 sequence (Fc fusion chain, looked up) with E53A, A94K
Protocol: as §1

L72A = molecular target: T5, L72A (human, UniProt Q6DKI7)
T5 construct: extracellular domain, amino acids 42-172; alanine-scanning variant; also called hCD112R-ECD-mFc L72A variant
T5 sequence (Fc fusion chain, looked up): T1 sequence (Fc fusion chain, looked up) with L31A, A94K
Protocol: as §1

H92A = molecular target: T6, H92A (human, UniProt Q6DKI7)
T6 construct: extracellular domain, amino acids 42-172; alanine-scanning variant; also called hCD112R-ECD-mFc H92A variant
T6 sequence (Fc fusion chain, looked up): T1 sequence (Fc fusion chain, looked up) with H51A, A94K
Protocol: as §1

[2] = molecular target: T7, hCD112R-ECD-mFc W100A variant (human; mouse, UniProt Q6DKI7 42-172)
T7 construct: range 42-172; also called W100A mutation of hCD112R; not shown: Fc domain of mouse IgG2a
T7 sequence (looked up): T1 sequence (Fc fusion chain, looked up) with W59A, A94K
Protocol: as §1

B1: H733 (humanized Ab composed of 733-VH-humanV2 and 733-VL-human-C91S) (antibody, human IgG4, V domains shown)
VH: QVQLVQSGAEVKKPGASVKVSCKASGYTFTNYLIEWVRQAPGQGLEWMGVINPGHGFTNYAQKFQGRVTMTRDTSTSTVYMELSSLRSEDTAVYYCARGEWDWYFDVWGQGTTVTVSS
VL: DIQLTQSPSFLSASVGDRVTITCKASQNVGTAVAWYQQKPGKAPKLLIYSTSNRYTGVPSRFSGSGSGTEFTLTISSLQPEDFATYYCQQSSSYPFTFGGGTKVEIK
notes: also called H733-hIgG4; H733 mAb (hIgG4 form)
**Q.** Which results are given for B1?
**A.** Kd (K135A): 0.847 nM; koff (K135A): 0.000412 s⁻¹; kon (K135A): 487000 M⁻¹ s⁻¹; Kd [1]: 1.42 nM; koff [1]: 0.000418 s⁻¹; kon [1]: 296000 M⁻¹ s⁻¹; Kd (F139A): 0.165 nM; koff (F139A): 0.000232 s⁻¹; kon (F139A): 1.4e+06 M⁻¹ s⁻¹; Kd (E94A): 0.533 nM; koff (E94A): 0.000573 s⁻¹; kon (E94A): 1.08e+06 M⁻¹ s⁻¹; Kd (L72A): 0.469 nM; koff (L72A): 0.000394 s⁻¹; kon (L72A): 840000 M⁻¹ s⁻¹; Kd (H92A): 0.366 nM; koff (H92A): 0.000373 s⁻¹; kon (H92A): 1.02e+06 M⁻¹ s⁻¹; Kd [2]: 5.64 nM; koff [2]: 0.000574 s⁻¹; kon [2]: 102000 M⁻¹ s⁻¹
